Reference: US20250136677A1 (ZOETIS SERVICES, published 2025)
Numbering of substitutions follows the chain as printed. In names and notes the source's numbering stands.

T1: wildtype feline IL-31 protein (Feline_IL31_wildtype) (feline)
T1 construct: Full length feline IL-31 with C-terminal His tag, secreted from ExpiCHO cells; also called fIL-31
T1 chain: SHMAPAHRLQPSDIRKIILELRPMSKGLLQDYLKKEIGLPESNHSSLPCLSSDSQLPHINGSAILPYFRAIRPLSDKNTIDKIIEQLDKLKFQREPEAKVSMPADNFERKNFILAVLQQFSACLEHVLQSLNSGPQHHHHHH

T2: canine IL-31 protein (Canine_IL31) (canine)
T2 chain: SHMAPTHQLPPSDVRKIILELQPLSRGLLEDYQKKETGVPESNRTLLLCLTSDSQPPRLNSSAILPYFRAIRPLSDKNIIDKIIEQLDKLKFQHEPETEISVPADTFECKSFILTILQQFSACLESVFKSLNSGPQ

B1: Feline_11E12 1.1_K46Q (antibody, V domains shown)
VH: QVLLVQSGAEVKKPGASVKIFCKASGYSFTYYDINWLRQAPEQGLEWMGWIFPGDGGTKYNETFKGRLTLTADTSTNTVYMELSSLRSADTAMYYCARGGTSVIRDAMDYWGQGALVTVSS
VL: EIQMTQSPSSLSASPGDRVTITCRASESVDNYGISFMHWYQQKPGQVPKLLIYRASNLESGVPSRFSGSGSGTDFTLTISSLEPEDAATYYCQQSNKDPLTFGQGTKLEIK
notes: felinized 11E12 with the single VL substitution K46Q; copies: 2 + 2
B2: Feline 15H05 VH3 mouse VL (antibody, V domains shown)
VH: QVLLVQSGAEVRKPGASVKIFCKASGYSFTSYTIHWLRQAPEQGLEWMGNINPTSGYTENNQRFKDRLTLTADTSTNTAYMELSSLRSADTAMYYCARWGFKYDGEWSFDVWGAGTTVTVSS
VL: DIQMNQSPSSLSASLGDTITVTCRASQGISIWLSWYQQKPGNIPKVLINKASNLHIGVPPRFSGSGSGTHFTLTITSLQPEDIATYYCLQSQTYPLTFGGGTKLEIN
notes: Heterochimeric antibody; also called felinized 15H05 VH3 with mouse 15H05 VL (heterochimera)
B3: Feline 15H05 1.3 (antibody, V domains shown)
VH: B2 VH with K13T, E42A
VL: EVVLTQSSAFLSRTLKEKATITCRASQGISIWLSWYQQKPNQAPKLLVKKASNLHIGAPSRFSGSGSGTDFTLTISSPEPEDAATYYCLQSQTYPLTFGGGTKLGDQ
notes: Feline heavy and kappa constant regions
B4: Feline 15H05 1.1 FW1_3 (antibody, V domains shown)
VH: B2 VH with K13T, E42A
VL: B2 VL with N42K, I43V, V46L, N49Y, N107K
notes: Printed as 'Feline 15H05 1.1 FW13'
B5: Feline 15H05 1.2 (antibody, V domains shown)
VH: B2 VH with K13T, E42A
VL: EITMTQSPGSLAGSPGQQVTMNCRASQGISIWLSWYQQKPGQHPKLLIYKASNLHIGVPDRFSGSGSGTDFTLTISNLQAEDVASYYCLQSQTYPLTFGGGTKLEIK
notes: as for B3
B6: Feline 15H05 2.2 (antibody, V domains shown)
VH: B2 VH with K13T, S28G, L37V, A40S, E42A
VL: B5 VL
notes: as for B3
B7: Feline 15H05 3.2 (antibody, V domains shown)
VH: B2 VH
VL: B5 VL
notes: as for B3
B8: A30 (antibody, V domains shown)
VH: B2 VH with K13T, T30A, E42A
VL: EIQMTQSPSSLSASPGDRVTITCRASQGISIWLSWYQQKPGNIPKVLINKASNLHIGVPSRFSGSGSGTDFTLTISSLEPEDAATYYCLQSQTYPLTFGGGTKLEIK
B9: A52 (antibody, V domains shown)
VH: B2 VH with K13T, E42A, W99A
VL: B8 VL
B10: A39 (antibody, V domains shown)
VH: B2 VH with K13T, E42A, N52A
VL: B8 VL
B11: A50 (antibody, V domains shown)
VH: B2 VH with K13T, E42A, Q62A
VL: B8 VL
B12: A40 (antibody, V domains shown)
VH: B2 VH with K13T, E42A, P53A
VL: B8 VL
B13: A44 (antibody, V domains shown)
VH: B2 VH with K13T, E42A, G56A
VL: B8 VL
B14: A37 (antibody, V domains shown)
VH: B2 VH with K13T, E42A, N50A
VL: B8 VL
B15: A45 (antibody, V domains shown)
VH: B2 VH with K13T, E42A, Y57A
VL: B8 VL
B16: A35 (antibody, V domains shown)
VH: B2 VH with K13T, I34A, E42A
VL: B8 VL
B17: A42 (antibody, V domains shown)
VH: B2 VH with K13T, E42A, T54A
VL: B8 VL
B18: A49 (antibody, V domains shown)
VH: B2 VH with K13T, E42A, N61A
VL: B8 VL
B19: A47 (antibody, V domains shown)
VH: B2 VH with K13T, E42A, E59A
VL: B8 VL
B20: A54 (antibody, V domains shown)
VH: B2 VH with K13T, E42A, F101A
VL: B8 VL
B21: A32 (antibody, V domains shown)
VH: B2 VH with K13T, S31A, E42A
VL: B8 VL
B22: A48 (antibody, V domains shown)
VH: B2 VH with K13T, E42A, N60A
VL: B8 VL
B23: A43 (antibody, V domains shown)
VH: B2 VH with K13T, E42A, S55A
VL: B8 VL
B24: A55 (antibody, V domains shown)
VH: B2 VH with K13T, E42A, K102A
VL: B8 VL
B25: A57 (antibody, V domains shown)
VH: B2 VH with K13T, E42A, D104A
VL: B8 VL
B26: A36 (antibody, V domains shown)
VH: B2 VH with K13T, H35A, E42A
VL: B8 VL
B27: A34 (antibody, V domains shown)
VH: B2 VH with K13T, T33A, E42A
VL: B8 VL
B28: A38 (antibody, V domains shown)
VH: B2 VH with K13T, E42A, I51A
VL: B8 VL

Target: T1, wildtype feline IL-31 protein …
Test: SPR (Biacore), IL-31 on chip, 1:1 fit
Procedure: The affinity with which candidate mAbs bind canine and feline IL-31 was determined using surface plasmon resonance (SPR) on a Biacore system (Biocore Life Sciences (GE Healthcare), Uppsala, Sweden). To avoid affinity differences associated with differential surface preparation that can occur when immobilizing antibodies to surfaces; a strategy was employed where IL-31 was directly conjugated to the surface. Immobilization was obtained by amine coupling 5 μg/mL IL-31 using N-hydroxysuccinimide (NHS)/1-Ethyl-3-(3-dimethylaminopropyl) carbodiimide (EDC) chemistry. Chips were quenched with ethanolamine and the affinity with which all candidate mAbs bound to the immobilized IL-31 was evaluated. All curves were fit to a 1:1 model. […] Results for affinity measurements are described herein.

| Binder | Kd | koff | kon |
| --- | --- | --- | --- |
| B1 | 12.6 nM | 0.000145 s⁻¹ | 11500 M⁻¹ s⁻¹ |
| B2 | 0.177 nM | 1.57e-05 s⁻¹ | 88900 M⁻¹ s⁻¹ |
| B3 | 86.4 nM | 0.00328 s⁻¹ | 38000 M⁻¹ s⁻¹ |
| B4 | 0.0674 nM | 3.02e-05 s⁻¹ | 448000 M⁻¹ s⁻¹ |
| B5 | 104 nM | 0.00147 s⁻¹ | 14100 M⁻¹ s⁻¹ |
| B6 | 2.15 nM | 0.00195 s⁻¹ | 905000 M⁻¹ s⁻¹ |
| B7 | 12.6 nM | 0.00166 s⁻¹ | 132000 M⁻¹ s⁻¹ |

Target: T1, wildtype feline IL-31 protein …
Test: cell-based or functional assay

| Binder | % Inhibition Relative to Parent (pSTAT, FCWF-4 cells) |
| --- | --- |
| B8 | 28.4% |
| B9 | -2.1% |
| B10 | 25.1% |
| B11 | 55.5% |
| B12 | 5.7% |
| B13 | 36.9% |
| B14 | 52.1% |
| B15 | 22.8% |
| B16 | 92.5% |
| B17 | 83.6% |
| B18 | 46.6% |
| B19 | 18% |
| B20 | -1% |
| B21 | 40.3% |
| B22 | 47.3% |
| B23 | 47.4% |
| B24 | 66.8% |
| B25 | 85.4% |
| B26 | 25.2% |
| B27 | 0% |
| B28 | 42.2% |

Target: T2, canine IL-31 protein (Canine_IL31)
Test: SPR (Biacore), IL-31 on chip, 1:1 fit

| Binder | koff | kon |
| --- | --- | --- |
| B1 | 8.85e-05 s⁻¹ | 46400 M⁻¹ s⁻¹ |
| B2 | 2.64e-07 s⁻¹ | 100000 M⁻¹ s⁻¹ |
| B3 | 0.00019 s⁻¹ | 29700 M⁻¹ s⁻¹ |
| B4 | 2.88e-08 s⁻¹ | 6590 M⁻¹ s⁻¹ |
| B5 | 0.000115 s⁻¹ | 33000 M⁻¹ s⁻¹ |
| B6 | 1.09e-05 s⁻¹ | 27700 M⁻¹ s⁻¹ |
| B7 | 6.04e-06 s⁻¹ | 29700 M⁻¹ s⁻¹ |

Target: T1, wildtype feline IL-31 protein …
Test: Biacore, feline IL-31 chip, mAb 100 nM, share of points within parent mean +/-3 SD
Set-up: key: % of mutant data points within parent mAb mean ±3 SD
Text: The mean response unit of four replicates of the parent mAb+/−3 standard deviations was used to generate parameters to define a threshold of response units comprising both the on- and off-rates antibody binding (FIG. 22). The percentage of data points for each mutant fell within this threshold was then used to define a “% similarity score” (FIG. 23).

| Binder | Binding Similarity score |
| --- | --- |
| B8 | 79 |
| B9 | 2.4 |
| B10 | 100 |
| B11 | 58.6 |
| B12 | 2.7 |
| B13 | 55.8 |
| B14 | 46.1 |
| B15 | 31.9 |
| B16 | 97.5 |
| B17 | 44.9 |
| B18 | 37 |
| B19 | 100 |
| B20 | 17.6 |
| B21 | 39.2 |
| B22 | 70.2 |
| B23 | 100 |
| B24 | 12.6 |
| B25 | 38.9 |
| B26 | 10.4 |
| B27 | 3.37 |
| B28 | 55.1 |
